# B1: OR4K15 (parent)
# chain: GUUAACGGUCAUAGGCCAUGGAAACUAGGAGCACCAUUUCGCUGCCAGUGAAGAAAUGAACAAAGAAAAUCUGGGCCAGGCAGGCAUCAAAAGAAAUAGUCUUGCGCUCAACCAGAAAGUCUGUAAUCAUUUUAAGGGUA
# Variants of: B1
# Assay: self-cleavage, relative activity (ratio to wild type); higher = more cleavage; in vitro, sequencing; the parent is a self-cleaving ribozyme
row,Variant,self-cleavage
1,U38C C105U,0.19
2,U38C U70C,1.05
3,U39C A126U,1.06
4,U39C A126G,1.18
5,U43A A56G,1.86
6,U43A A56C,0.8
7,U39A A114G,0.77
8,U39C C40U,1.54
9,U43A U131C,0.91
10,U43A U57A,1.79
11,U39C U139C,1.9
12,C40U A78U,0.32
13,C40U A78G,0.44
14,C40U U103A,1.28
15,U39C A63G,1.66
16,G41A U100C,1.52
17,U39C A98G,0.98
18,C40A A114G,0.11
19,G41A U108C,0.01
20,U39C G53A,1.53
21,U39A A68G,1.32
22,U43A A129G,0.65
23,G41U A94U,1.48
24,U39A A117U,1.81

row,Variant,self-cleavage
1,C40G U72C,0.41
2,U38G U127C,1.37
3,U43A U108C,0.02
4,U39A A63G,1.95
5,U39C A114G,0.72
6,C40G A90G,1.44
7,G41A A67G,1.02
8,U38C U57C,0.83
9,U38C U57A,1.48
10,U43A A60U,1.88
11,U38C A63G,1.7
12,U39A U127A,1.46
13,G41A A129G,0.61
14,U39C A95U,1.78
15,U38C U100C,2.28
16,U39C U103C,0.93
17,U39C U70C,0.95
18,U38C A134G,1.74
19,U43A A110U,2.05
20,C40A A91G,1.76
21,U39C A51G,1.5
22,U43A A111G,0.03
23,U43A A111C,0.03
24,U43A U70A,0.37

row,Variant,self-cleavage
1,U39A G138A,0.14
2,U39A U103C,2.1
3,U38C A56G,1.5
4,U38C A135G,1.9
5,U38C A135U,1.86
6,U39A G48U,1.24
7,U39A C112G,0
8,C42U A96G,2.35
9,C42G U108C,0.01
10,U38G A95G,2.17
11,U38C A110U,1.46
12,U43A A62G,0.93
13,G41A A116G,0.63
14,C40A A64G,2.37
15,U43A A134G,1.81
16,C40A A60G,1.56
17,U43A A52G,1.6
18,C40U G99A,0.32
19,C42U C128U,1.41
20,C40U U100C,1.83
21,U39G A90G,1.08
22,U39C A60G,1.42
23,U39A A47G,0.44
24,U43A A116G,0.55

row,Variant,self-cleavage
1,G41A U43C,1.72
2,G41A U43A,1.69
3,U39C U49C,0.91
4,U39C A47U,0.79
5,U39C A140C,1.79
6,U38C A126U,1.12
7,U38C A117G,1.18
8,U38G A96G,0.69
9,G41U A51G,1.69
10,G41A A64G,2.12
11,C40U G44A,2.32
12,U39G A95G,1.81
13,U38C A116U,0.09
14,U38C A116G,1.09
15,U38C A66U,1.32
16,U38C A66G,1.97
17,U38C A94C,1.41
18,U43A G83A,1.97
19,U38C A60G,1.44
20,U43A A63G,2.21
21,U39C A134G,1.83
22,U39A U70C,0.92
23,G41A C113U,0.02
24,U38C C88U,2.51

row,Variant,self-cleavage
1,U43A U122C,1.85
2,C40A A68G,1.61
3,U39C C45U,1.46
4,U39C C45A,0.46
5,U39C C45G,1.5
6,U39A U43A,1.66
7,U39A U43C,1.95
8,U38C U127A,2.78
9,U43A A94C,1.01
10,C40U A69G,0.94
11,U38G C107U,0.02
12,U39C G123A,2.04
13,U39C A78G,0.26
14,C40U A51U,2
15,C40A A95G,2.53
16,U39A A90G,0.95
17,U43C A59G,0.68
18,U39C A64G,1.88
19,U39C A55G,1.66
20,U39C A68G,1.37
21,U43C A60G,1.43
22,U38C A140G,2.16
23,G41A G106A,0.01
24,U38C G137U,2.1

row,Variant,self-cleavage
1,G41A A86G,1.05
2,U38G A54G,1.38
3,U38C A129G,1.31
4,U38C A129U,1.21
5,U39C A111G,0.02
6,U39C A111C,0.01
7,C40U A62C,1.11
8,C40U A62G,1.2
9,C40U A89U,1.93
10,C40U A89G,1.33
11,U39C C105U,0.24
12,U38C A51U,1.24
13,U38C A51G,1.33
14,G41C U139A,1.78
15,U39A U57A,1.37
16,G41A A117G,0.44
17,U43A A118U,0.9
18,U43A A118G,1.25
19,C40U A63G,2.13
20,U39C A118U,0.78
21,U43A U133C,2.13
22,C40A U97C,1.43
23,U38C A55G,0.93
24,C40U U108C,0.02

row,Variant,self-cleavage
1,U39C A67G,1.24
2,U39C A67U,1.9
3,C42G A95G,1.87
4,U39A A89U,2.25
5,U39A A89G,2.23
6,U39C U133C,2.27
7,C40U A116C,0.08
8,U39A U122C,1.39
9,G41A A96G,1.7
10,G41U A86U,1.98
11,U38G A62C,0.78
12,U39A A91U,0.94
13,U39C U100A,0.56
14,U39C U100C,2.44
15,G41C A135G,1.81
16,C40U A118G,1.21
17,U38C A82G,0.57
18,U39C U130C,1.12
19,C42U A62G,1.26
20,U39C G99A,0.3
21,C40A A59U,2
22,U39A A111G,0.02
23,U43A U97C,0.92
24,U39C A110G,0.14

row,Variant,self-cleavage
1,U39C A82U,0.22
2,G41U A78G,0.36
3,U39C G58A,0.67
4,U43A A55U,2.41
5,U43A A55G,0.35
6,G41C A98G,0.57
7,U39A U97C,1.85
8,U39A A96G,1.56
9,U39A A56G,1.59
10,U39C U97C,1.29
11,U39C U87A,1.92
12,U39C A91U,1.59
13,U38C U133C,0.93
14,U39G C105A,0.16
15,U39A G115C,0.52
16,U39A G115U,0.27
17,U43A U72A,0.2
18,U43A U72C,0.27
19,U39C U102C,2.19
20,U43A A117G,2.17
21,U43A A117U,1.18
22,G41U A82G,0.2
23,U39A A64U,1.87
24,U39A A64G,0.93

row,Variant,self-cleavage
1,G41A U87C,0.63
2,U39C G106U,0.02
3,U39A A66G,1.87
4,U43A A78U,1.02
5,U43A A78G,0.14
6,U39C A69C,1.33
7,C40U A90G,1.72
8,G41A U122G,1.51
9,G41A G136A,1.2
10,C40A A135G,1.29
11,U43A G44A,1.06
12,U43A G65A,2.07
13,U39G A126G,1.03
14,U38C G79A,0.22
15,U43A A82U,0.12
16,U43A A82G,0.13
17,U43C A62G,1.29
18,U43C A62C,1.57
19,U43C A62U,2.19
20,U43C A51U,1.35
21,G41A A82U,0.14
22,C42U A66G,1.64
23,C42U A51U,1.45
24,C42U A118G,0.7

row,Variant,self-cleavage
1,U38C U139C,0.91
2,U38C U139A,1.75
3,C40A U122C,1.07
4,U39G U102C,2.67
5,C42A A52G,1.41
6,U43A A89G,1.77
7,U39C U127A,2.26
8,C42U A94G,2.27
9,U39C A116C,0.07
10,U39C A116G,0.83
11,U43A A140G,2.11
12,U38C U120C,1.06
13,G41C A69G,1.84
14,U43A A68U,1.7
15,U39G A67U,1.13
16,U39A U49C,1
17,C40U A114U,0.1
18,G41C A52G,1.59
19,U39C C81U,0.63
20,C40A,1.83
21,C40G,1.62
22,C40U,1.57
23,G41A A89G,2.8
24,C40A A51G,1.81

row,Variant,self-cleavage
1,U43A A54G,0.83
2,U39A U102C,1.55
3,U39G A62G,1.3
4,G41A A110C,0.4
5,U39C G115U,0.04
6,U39A A95G,2.05
7,U39A A54U,1.18
8,U38C C109U,0.26
9,U39C A125U,1.8
10,U38C A96G,1.51
11,G41C A111G,0.02
12,U38C A125G,0.54
13,U38C C101U,0.35
14,C42U U130C,1.09
15,U38C A68U,2.15
16,C40U U87C,1.44
17,C42A A110G,0.16
18,U38C U108A,0.03
19,U43A U49A,0.87
20,U43A A86G,1.6
21,U43A A114G,0.86
22,U39A A51G,2.15
23,U39C A96G,1.77
24,U39C A96U,1.52

row,Variant,self-cleavage
1,U39C A96C,0.78
2,U38C U132C,1.64
3,U38C G41U,1.46
4,U43C A47U,0.96
5,C40A U102C,1.98
6,U38C U103A,0.64
7,U38C U103C,1.18
8,G41U A91G,1.31
9,C40U A98G,0.83
10,U38G,1.59
11,U39C A135C,1.38
12,U39A A135G,1.75
13,U39C A52U,2.16
14,U39A A52U,1.65
15,U38C G84A,2.05
16,U38C U124A,0.81
17,U39C A66U,1.28
18,U39A U130C,1.09
19,C42A A98G,0.37
20,U39A A110U,2.06
21,U39A A110G,0.04
22,C40A A94G,2.28
23,U38C A90U,2.23
24,U38C A118U,0.98

row,Variant,self-cleavage
1,U39C U108A,0.03
2,U39C G41A,2
3,U39C G41U,1.16
4,G41A U103C,1.76
5,U39C C71U,0.29
6,U39A A116U,0.09
7,G41C A86U,0.57
8,U38C G83A,2.15
9,U38C G83U,0.43
10,C40U A111G,0.02
11,U39C G50U,1.89
12,U39C C76U,0.19
13,U43A A98G,1.07
14,C42U A91G,1.09
15,U43A A66G,1.96
16,U43A A66U,1.62
17,U43A A64G,1.49
18,U43A A91G,0.55
19,U38C A62U,1.06
20,U43A C105U,0.1
21,U38C U39C,1.64
22,U43A C128A,0.8
23,U43A G53A,1.84
24,U38C U43A,2.13

row,Variant,self-cleavage
1,U39A A125U,2.5
2,G41A U130G,1.4
3,U39C U120C,0.95
4,G41A A63G,1.4
5,U38G A116G,1.67
6,C42U A117G,2.46
7,U43A A47G,1.12
8,U43C A52G,1.49
9,U43C A52U,1.51
10,U38C A114U,0.15
11,U39A A86G,1.76
12,U38C A91G,1.24
13,G41A A54U,1.03
14,U43A U103C,1.1
15,U39A A140G,1.16
16,C42U U103A,1.01
17,U38C C61U,1.86
18,U39A A62G,1.21
19,U39C C128U,1.42
20,U39C C128A,0.73
21,U38C A69G,0.88
22,C42A C45A,1.75

# Source: the RNAGym collection of RNA variant scans (doi:10.7554/elife.90254)
